Measured values published in patent publication US20220049017A1 (KYMAB, published 2022).
Residue numbers refer to the chain shown, from its start.

B1: CL-148489 (antibody, V domains shown)
VH: EVQLVESGGGLVQPGRSLRLSCTASGFTFADYVMHWVRQTPGKGLEWVSGISWNSYSINYADSVKGRFTISRDNAQNSLYLQMNSLRAEDTALYFCAKDITYDLLTGYNYNYGLDVWGQGTTVTVSS
VL: DIVMTQTPLSLSVTPGQPASISCRSSQSLLHSDGKTYLYWYLQKPGQPPQLLIYEVSNRFSGVPDRFSGSGSGTDFTLKISRVEAEDVGLYYCMQSIQLPLTFGGGTKVEIK
notes: Human antibody with a kappa light chain
B2: CL-274698 (antibody, V domains shown)
VH: QVQLQESGPGLVKPSGTLSLTCAVSGGSISSSKWWSWVRQPPGKGLEWIGETHYSGSTNYNPSLKSRVTISVDKSKNQFSLKLRSVTAADTAVYYCARVGATENFWGQGTLVTVSS
VL: EIVLTQSPATLSLSPGERATLSCRASQSVFRYLAWYQQKPGQAPRLLIYDASTRATDIPARFSGSGSGTDFTLTISSLEPEDFAVYYCQQRSNWPPTFGQGTKVEIK
notes: Human antibody with a kappa light chain, derived from a PCSK9 knockout mouse
B3: CL-274711 (antibody, V domains shown)
VH: QVQLQESGPGLVKPSQTLSLTCTVSGGSISSGGYYWSWIRQHPGKGLEWIGHIFYSGSTYYNPSLKSRVTISVDTSKNQFSLKLNSVTAADTAVYYCASEGGYYDIPDVWGQGTTVTVSS
VL: B2 VL with F30S, R31N, Y49S, T53N, D57G, V85I, P96L, Q100G
notes: Human antibody with a kappa light chain, generated by immunising a PCSK9 knockout mouse
B4: CL-148219 (antibody, V domains shown)
VH: QVHLQESGPGLVKPSETLSLTCTVSGGSISSYYWSWIRQYPGKGLEWIGYISYSGSSNYNPSLKRRVTISRDTSKNQFSLNLTSVIAADTAVYYCARNLMIRGAYGMDVWGQGTTVTVSS
VL: DTVMTQSPLSLPVTPGEPASISCRSSQSLLHSNGYNYLDWYLQKAGQSPQLLIYLGSNRASGVPDRFSGSVSGTDFTLKISRVEAEDVGIYYCMQALQTPFTFGPGTKVDIK
modifications: NLT motif in heavy chain framework 3 confirmed N-glycosylated by mass spectrometry
notes: Human antibody, captured through anti-human Fc in the SPR assay
B5: CL-148219 QLT mutant (antibody, V domains shown)
VH: B4 VH with N81Q
VL: B4 VL
B6: Alirocumab hIgG4PE (antibody, V domains shown)
VH: EVQLVESGGGLVQPGGSLRLSCAASGFTFNNYAMNWVRQAPGKGLDWVSTISGSGGTTNYADSVKGRFIISRDSSKHTLYLQMNSLRAEDTAVYYCAKDSNWGNFDLWGRGTLVTVSS
VL: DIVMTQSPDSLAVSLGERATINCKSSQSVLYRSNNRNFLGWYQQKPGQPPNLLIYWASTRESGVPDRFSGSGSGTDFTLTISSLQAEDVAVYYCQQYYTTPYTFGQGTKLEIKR

target: T1, mouse PCSK9 (mouse, UniProt Q80W65 35-694, limits assumed); assay: ProteOn SPR, captured antibody, pH 7.6;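 also: antibodies captured via anti-human Fc on a GLC sensor chip, PCSK9 binding sensorgrams fitted to a 1:1 Langmuir model giving on and off rates, with KD derived from them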
T1 construct: also called mPCSK9; PCSK9 mouse
T1 sequence (Q80W65 35-694 limits assumed): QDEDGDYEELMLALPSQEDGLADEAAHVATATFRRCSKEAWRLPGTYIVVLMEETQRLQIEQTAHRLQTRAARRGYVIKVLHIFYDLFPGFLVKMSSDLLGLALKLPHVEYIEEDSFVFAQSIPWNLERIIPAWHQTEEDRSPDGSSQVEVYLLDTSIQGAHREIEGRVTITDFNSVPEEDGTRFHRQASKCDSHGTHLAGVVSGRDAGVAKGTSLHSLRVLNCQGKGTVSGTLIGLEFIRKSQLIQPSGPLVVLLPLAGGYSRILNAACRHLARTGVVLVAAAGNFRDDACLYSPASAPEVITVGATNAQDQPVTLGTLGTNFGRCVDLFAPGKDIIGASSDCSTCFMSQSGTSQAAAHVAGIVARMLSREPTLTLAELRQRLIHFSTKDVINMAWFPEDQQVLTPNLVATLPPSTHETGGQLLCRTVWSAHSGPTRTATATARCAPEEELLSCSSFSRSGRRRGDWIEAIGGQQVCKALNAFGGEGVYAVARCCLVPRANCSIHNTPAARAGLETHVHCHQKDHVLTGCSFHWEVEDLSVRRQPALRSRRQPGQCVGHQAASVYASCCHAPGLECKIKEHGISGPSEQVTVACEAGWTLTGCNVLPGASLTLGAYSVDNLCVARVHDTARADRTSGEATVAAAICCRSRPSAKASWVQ
Method: (§1) The SPR runs were performed using a GLC chip (Bio-Rad) immobilised with anti-human Fc antibodies. The analyte human antibodies were captured on the chip surface at 2 ug/ml. […] The chip surface was regenerated using two injections of 10 mM Glycine pH 1.5 for 160 seconds at 30 μl/min. The sensorgrams were then fitted with a 1:1 model (Langmuir kinetic model) where ka and kd are fitted and KD was calculated by the ProteOn software.

Kd	koff	kon	Binder
2.69 nM	0.00192 s⁻¹	714000 M⁻¹ s⁻¹	B1
0.273 nM	0.000257 s⁻¹	941000 M⁻¹ s⁻¹	B2
0.889 nM	–	–	B3
0.52 nM	0.000411 s⁻¹	791000 M⁻¹ s⁻¹	B4
0.587 nM	0.000352 s⁻¹	600000 M⁻¹ s⁻¹	B5

target: T2, human PCSK9 variant b (human, UniProt Q8NBP7 31-692); assay: ProteOn SPR, captured antibody, pH 7.6;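 also: antibodies captured via anti-human Fc on a GLC sensor chip, PCSK9 binding sensorgrams fitted to a 1:1 Langmuir model giving on and off rates, with KD derived from them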
T2 construct: also called Human PCSK9 var B; hPCSK9b
Method: as §1

Kd	koff	kon	Binder
0.193 nM	0.000164 s⁻¹	848000 M⁻¹ s⁻¹	B1
0.091 nM	0.000127 s⁻¹	1.39e+06 M⁻¹ s⁻¹	B2
0.215 nM	0.000225 s⁻¹	1.05e+06 M⁻¹ s⁻¹	B4
0.257 nM	0.000221 s⁻¹	862000 M⁻¹ s⁻¹	B5

target: T3, human PCSK9 variant a (human, UniProt Q8NBP7 31-692); assay: ProteOn SPR, captured antibody, pH 7.6;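 also: antibodies captured via anti-human Fc on a GLC sensor chip, PCSK9 binding sensorgrams fitted to a 1:1 Langmuir model giving on and off rates, with KD derived from them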
T3 construct: also called Human PCSK9 var A; hPCSK9a
Method: as §1

Kd	koff	kon	Binder
0.175 nM	0.000157 s⁻¹	894000 M⁻¹ s⁻¹	B1
0.0998 nM	0.000136 s⁻¹	1.37e+06 M⁻¹ s⁻¹	B2
0.216 nM	0.000234 s⁻¹	1.08e+06 M⁻¹ s⁻¹	B4
0.267 nM	0.000229 s⁻¹	856000 M⁻¹ s⁻¹	B5

target: T4, cynomolgus monkey PCSK9 (cynomolgus monkey, UniProt A8T662 31-692 (Macaca nemestrina entry), limits assumed); assay: ProteOn SPR, captured antibody, pH 7.6;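 also: antibodies captured via anti-human Fc on a GLC sensor chip, PCSK9 binding sensorgrams fitted to a 1:1 Langmuir model giving on and off rates, with KD derived from them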
T4 construct: also called Cyno PCSK9; cynoPCSK9
T4 sequence (A8T662 31-692 limits assumed): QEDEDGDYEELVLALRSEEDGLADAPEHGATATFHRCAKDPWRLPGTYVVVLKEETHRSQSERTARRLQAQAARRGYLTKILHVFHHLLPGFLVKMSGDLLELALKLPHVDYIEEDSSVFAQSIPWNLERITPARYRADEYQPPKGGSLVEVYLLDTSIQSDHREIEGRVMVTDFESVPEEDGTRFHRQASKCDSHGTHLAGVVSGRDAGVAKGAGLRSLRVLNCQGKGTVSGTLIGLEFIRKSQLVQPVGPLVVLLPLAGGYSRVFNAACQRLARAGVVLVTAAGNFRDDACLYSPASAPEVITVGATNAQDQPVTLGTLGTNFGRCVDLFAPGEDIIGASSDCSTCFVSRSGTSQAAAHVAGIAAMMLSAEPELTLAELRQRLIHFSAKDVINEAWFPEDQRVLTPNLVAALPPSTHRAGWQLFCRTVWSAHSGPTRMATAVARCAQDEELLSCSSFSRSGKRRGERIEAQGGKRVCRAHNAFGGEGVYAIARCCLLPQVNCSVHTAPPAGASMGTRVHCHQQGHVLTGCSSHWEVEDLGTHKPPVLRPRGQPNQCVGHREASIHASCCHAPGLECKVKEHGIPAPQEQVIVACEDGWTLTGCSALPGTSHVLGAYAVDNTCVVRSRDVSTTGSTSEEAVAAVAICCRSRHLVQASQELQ
Method: as §1

Kd	koff	kon	Binder
0.0506 nM	5.73e-05 s⁻¹	1.13e+06 M⁻¹ s⁻¹	B1
0.0984 nM	0.000108 s⁻¹	1.1e+06 M⁻¹ s⁻¹	B2
0.145 nM	–	–	B3
0.296 nM	0.000284 s⁻¹	958000 M⁻¹ s⁻¹	B4
0.352 nM	0.000256 s⁻¹	728000 M⁻¹ s⁻¹	B5

target: T5, human PCSK9 D374Y gain-of-function mutant (human, UniProt Q8NBP7 31-692); assay: ProteOn SPR, captured antibody, pH 7.6
T5 construct: It was AF647-labelled in the HepG2 cell-based assay and unlabelled in SPR; also called Human PCSK9 GOF; hPCSK9 GOF
Method: as §1

Kd	koff	kon	Binder
0.136 nM	0.000129 s⁻¹	947000 M⁻¹ s⁻¹	B1
0.0689 nM	8.36e-05 s⁻¹	1.21e+06 M⁻¹ s⁻¹	B2
0.245 nM	0.000233 s⁻¹	949000 M⁻¹ s⁻¹	B4
0.303 nM	0.000219 s⁻¹	721000 M⁻¹ s⁻¹	B5

target: T6, human PCSK9 reference (human, UniProt Q8NBP7 31-692); assay: ProteOn SPR, captured antibody, pH 7.6
Method: as §1

Kd	koff	kon	Binder
0.176 nM	0.000163 s⁻¹	924000 M⁻¹ s⁻¹	B1
0.0929 nM	0.000125 s⁻¹	1.35e+06 M⁻¹ s⁻¹	B2
0.205 nM	0.00023 s⁻¹	1.13e+06 M⁻¹ s⁻¹	B4
0.272 nM	0.000226 s⁻¹	833000 M⁻¹ s⁻¹	B5

target: T5, human PCSK9 D374Y gain-of-function …; assay: cell-based or functional assay

IC50 (read off the curve)	Binder
~4 nM	B2

target: T2, human PCSK9 variant b; assay: ProteOn SPR, captured antibody, pH 5.8; KD cannot be accurately determined
Method: as §1

Kd	Binder
< 0.00649 nM	B1

target: T3, human PCSK9 variant a; assay: as above
Method: as §1

Kd	Binder
< 0.008 nM	B1

target: T5, human PCSK9 D374Y gain-of-function …; assay: as above
Method: as §1

Kd	Binder
< 0.0073 nM	B1

target: T6, human PCSK9 reference; assay: as above
Method: as §1

Kd	Binder
< 0.00667 nM	B1

target: T5, human PCSK9 D374Y gain-of-function …; assay: cell-based or functional assay; remark: another data set of the same source

IC50 (read off the curve)	Binder
~2 nM	B5

target: T1, mouse PCSK9; assay: ProteOn SPR, captured antibody, pH 5.8;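 also: antibodies captured on a GLC chip coated with anti-human Fc, rate constants from a 1:1 Langmuir fit of the sensorgrams, Kd derived from the fitted rates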
Method: as §1

Kd	koff	kon	Binder
0.46 nM	0.000632 s⁻¹	1.38e+06 M⁻¹ s⁻¹	B1
0.103 nM	0.000137 s⁻¹	1.33e+06 M⁻¹ s⁻¹	B2
1.26 nM	–	–	B3
0.691 nM	0.000701 s⁻¹	1.01e+06 M⁻¹ s⁻¹	B4
1.43 nM	0.000675 s⁻¹	472000 M⁻¹ s⁻¹	B5

target: T2, human PCSK9 variant b; assay: ProteOn SPR, captured antibody, pH 5.8;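 also: antibodies captured on a GLC chip coated with anti-human Fc, rate constants from a 1:1 Langmuir fit of the sensorgrams, Kd derived from the fitted rates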
Method: as §1

kon	Kd	koff	Binder
1.54e+06 M⁻¹ s⁻¹	–	–	B1
1.6e+06 M⁻¹ s⁻¹	0.0262 nM	4.19e-05 s⁻¹	B2
918000 M⁻¹ s⁻¹	0.412 nM	0.000378 s⁻¹	B4
607000 M⁻¹ s⁻¹	0.694 nM	0.000421 s⁻¹	B5

target: T3, human PCSK9 variant a; assay: ProteOn SPR, captured antibody, pH 5.8;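 also: antibodies captured on a GLC chip coated with anti-human Fc, rate constants from a 1:1 Langmuir fit of the sensorgrams, Kd derived from the fitted rates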
Method: as §1

kon	Kd	koff	Binder
1.25e+06 M⁻¹ s⁻¹	–	–	B1
1.56e+06 M⁻¹ s⁻¹	0.0309 nM	4.81e-05 s⁻¹	B2
908000 M⁻¹ s⁻¹	0.426 nM	0.000387 s⁻¹	B4
602000 M⁻¹ s⁻¹	0.712 nM	0.000429 s⁻¹	B5

target: T4, cynomolgus monkey PCSK9; assay: ProteOn SPR, captured antibody, pH 5.8;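 also: antibodies captured on a GLC chip coated with anti-human Fc, rate constants from a 1:1 Langmuir fit of the sensorgrams, Kd derived from the fitted rates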
Method: as §1

Kd	koff	kon	Binder
0.0924 nM	0.000121 s⁻¹	1.31e+06 M⁻¹ s⁻¹	B1
0.0297 nM	3.75e-05 s⁻¹	1.26e+06 M⁻¹ s⁻¹	B2
0.164 nM	–	–	B3
0.345 nM	0.000336 s⁻¹	975000 M⁻¹ s⁻¹	B4
0.568 nM	0.000331 s⁻¹	584000 M⁻¹ s⁻¹	B5

target: T5, human PCSK9 D374Y gain-of-function …; assay: ProteOn SPR, captured antibody, pH 5.8
Method: as §1

kon	Kd	koff	Binder
1.37e+06 M⁻¹ s⁻¹	–	–	B1
1.53e+06 M⁻¹ s⁻¹	0.025 nM	3.83e-05 s⁻¹	B2
908000 M⁻¹ s⁻¹	0.431 nM	0.000391 s⁻¹	B4
606000 M⁻¹ s⁻¹	0.753 nM	0.000456 s⁻¹	B5

target: T6, human PCSK9 reference; assay: ProteOn SPR, captured antibody, pH 5.8
Method: as §1

kon	Kd	koff	Binder
1.5e+06 M⁻¹ s⁻¹	–	–	B1
1.6e+06 M⁻¹ s⁻¹	0.0286 nM	4.6e-05 s⁻¹	B2
1.02e+06 M⁻¹ s⁻¹	0.368 nM	0.000374 s⁻¹	B4
622000 M⁻¹ s⁻¹	0.667 nM	0.000415 s⁻¹	B5

target: T3, human PCSK9 variant a; assay: ProteOn SPR, captured antibody, pH 5.8; value is the lower detection limit; pH 5.8
Method: as §1

koff	Binder
≤ 1e-05 s⁻¹	B1

target: T5, human PCSK9 D374Y gain-of-function …; assay: cell-based or functional assay; remark: another data set of the same source

IC50 (read off the curve)	Binder
~4 nM	B4
~2 nM	B6

target: T2, human PCSK9 variant b; assay: ProteOn SPR, captured antibody, pH 5.8; value is the lower detection limit
Method: as §1

koff	Binder
≤ 1e-05 s⁻¹	B1

target: T5, human PCSK9 D374Y gain-of-function …; assay: as above
Method: as §1

koff	Binder
≤ 1e-05 s⁻¹	B1

target: T6, human PCSK9 reference; assay: as above
Method: as §1

koff	Binder
≤ 1e-05 s⁻¹	B1

target: T5, human PCSK9 D374Y gain-of-function …; assay: cell-based or functional assay; remark: another data set of the same source

IC50 (read off the curve)	Binder
~3 nM	B4
